Assay results from publication PMC4512722.

Experiments:
[1] = biological target: tomato pectin methylesterase PME1 (tomato) (UniProt P14280); assay: SPR; tomato PME1 immobilised by amine coupling on a COOH5 chip (SensiQ Pioneer), VvPMEI1 injected at 2.3-300 nM, 25°C, 10 mM NaOAc pH 5.5, 0.1 M NaCl, 0.005% Tween-20; 1:1 interaction model
[2] = biological target: tomato pectin methylesterase PME1 (tomato) (UniProt P14280)
[3] = biological target: tomato pectin methylesterase PME1 (tomato) (UniProt P14280); assay: SPR; tomato PME1 immobilised by amine coupling on a COOH5 chip (SensiQ Pioneer), VvPMEI1 injected at 2.3-300 nM, 25°C, 10 mM HEPES pH 7.5, 0.1 M NaCl, 0.005% Tween-20; 1:1 interaction model

Sequence of UniProt P14280 (P14280 230-546): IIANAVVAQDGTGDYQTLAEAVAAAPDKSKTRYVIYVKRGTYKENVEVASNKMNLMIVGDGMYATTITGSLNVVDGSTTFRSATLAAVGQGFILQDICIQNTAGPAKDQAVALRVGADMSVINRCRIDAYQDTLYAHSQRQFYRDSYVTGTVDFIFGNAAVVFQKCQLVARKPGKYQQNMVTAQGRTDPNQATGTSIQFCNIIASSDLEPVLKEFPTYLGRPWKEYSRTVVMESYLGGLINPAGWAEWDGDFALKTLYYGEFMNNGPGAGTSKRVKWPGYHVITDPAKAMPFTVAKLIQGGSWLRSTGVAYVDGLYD

**Q.** How did the Kd [1] turn out when “VvPMEI1, pectin methylesterase inhibitor of Vitis vinifera (recombinant) (natural protein)” was run?
**A.** 0.00477 µM

**Q.** What about the koff [1] of the same substance?
**A.** 0.00317 s⁻¹

**Q.** What about the inhibitory activity (%) at pH 6.5, inhibition at pH 5.5 taken as 100% [2] of the same substance?
**A.** 100%

**Q.** What about the inhibitory activity (%) at pH 7.5, inhibition at pH 5.5 taken as 100% [2] of the same substance?
**A.** 84%

**Q.** And the Kd [3]?
**A.** 0.035 µM

**Q.** What about the koff [3] of the same substance?
**A.** 0.026 s⁻¹
